Measured values reported in patent US20250313626A1 (HARBOUR BIOMED SHANGHAI, published 2025).

T1: Cynomolgus macaques CD200R1 isoform a on CHOK1 cells (CHOK1/cynoCD200R1a) (Cynomolgus macaques)
T1 chain: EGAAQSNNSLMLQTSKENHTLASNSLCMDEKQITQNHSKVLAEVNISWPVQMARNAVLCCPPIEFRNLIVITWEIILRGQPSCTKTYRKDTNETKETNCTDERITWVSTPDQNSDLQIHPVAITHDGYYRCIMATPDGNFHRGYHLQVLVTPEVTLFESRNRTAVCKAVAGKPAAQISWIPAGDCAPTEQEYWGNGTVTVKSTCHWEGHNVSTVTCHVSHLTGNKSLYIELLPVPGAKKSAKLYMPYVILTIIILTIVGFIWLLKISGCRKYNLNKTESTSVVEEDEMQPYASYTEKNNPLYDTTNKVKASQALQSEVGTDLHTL

T2: CD200R1a on PathHunter Jurkat CD200R1a signaling cells (Eurofins DiscoverX, 93-1136C19) (human, UniProt Q8TD46 25-348)
T2 sequence: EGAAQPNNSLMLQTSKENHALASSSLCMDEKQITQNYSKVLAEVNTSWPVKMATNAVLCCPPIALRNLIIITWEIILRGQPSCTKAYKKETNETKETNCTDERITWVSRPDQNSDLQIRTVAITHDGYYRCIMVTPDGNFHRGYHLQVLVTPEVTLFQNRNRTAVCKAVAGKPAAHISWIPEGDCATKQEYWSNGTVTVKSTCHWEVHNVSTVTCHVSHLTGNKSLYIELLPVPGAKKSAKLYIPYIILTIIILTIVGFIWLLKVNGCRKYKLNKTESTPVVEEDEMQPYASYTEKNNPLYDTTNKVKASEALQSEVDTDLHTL

T3: cell surface glycoprotein CD200 receptor 2 isoform 1 precursor CD200R1L recombinant protein (Sino … (human, UniProt Q6Q8B3 24-239))
T3 construct: Bought protein; also called hCD200R1L; recombinant human CD200R1L protein
T3 sequence: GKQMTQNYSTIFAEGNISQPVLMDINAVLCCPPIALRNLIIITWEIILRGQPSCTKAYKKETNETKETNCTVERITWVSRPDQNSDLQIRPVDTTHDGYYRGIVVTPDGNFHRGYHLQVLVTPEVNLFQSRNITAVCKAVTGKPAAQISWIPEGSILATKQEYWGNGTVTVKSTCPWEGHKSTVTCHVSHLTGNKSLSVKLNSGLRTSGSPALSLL

T4: human CD200R1a protein (soluble recombinant) (human, UniProt Q8TD46 29-265)
T4 construct: Soluble protein used in BLI; also called human CD200R1 isoform a; not shown: His tag implied by capture on anti-Penta-HIS biosensors
T4 sequence: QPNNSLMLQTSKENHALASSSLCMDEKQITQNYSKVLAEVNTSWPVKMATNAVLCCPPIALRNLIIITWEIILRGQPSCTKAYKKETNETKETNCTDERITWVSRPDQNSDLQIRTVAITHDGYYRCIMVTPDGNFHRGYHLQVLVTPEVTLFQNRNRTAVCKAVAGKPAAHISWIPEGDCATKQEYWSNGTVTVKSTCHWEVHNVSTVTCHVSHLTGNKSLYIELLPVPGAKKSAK


What was measured:
[1] = molecular target: T1, Cynomolgus macaques CD200R1 isoform a …; assay: flow cytometry, CHOK1/cynoCD200R1a cells (APC-A Mean); table beside the curves
[2] = molecular target: T2, CD200R1a on PathHunter Jurkat CD200R1a …; assay: cell-based or functional assay
[3] = molecular target: T3, cell surface glycoprotein CD200 …; assay: ELISA on plate-coated recombinant human CD200R1L
Method: In specific, the cell surface glycoprotein CD200 receptor 2 isoform 1 precursor CD200R1L recombinant protein (Sino Biologicals, 11620-H08H, SEQ ID NO:174) were diluted with PBS to 1 μg/mL, and added to a 96-well plate (Corning, #9018) at 100 μl per well, and incubated overnight at 4° C. After the liquid was discarded, the plate was washed 3 times with PBST buffer (pH 7.4, containing 0.05% tween-20), 250 μl 2% BSA blocking solution was added into the plate and incubated at 37° C. for 1 hour. The blocking solution was discarded and the plate was washed 3 times with PBST buffer (pH 7.4, containing 0.05% Tween-20). The anti-CD200R1 antibodies were diluted and added at 100 µl/well, incubated at 37° C. for 1 hour, with isotype antibody as a control. After the plate was washed 3 times with PBST buffer (pH 7.4, containing 0.05% Tween-20), goat anti-human HRP secondary antibody (Invitrogen, #A18805) was diluted 5000 times, added into the plate and incubated for 1 hour at 37° C. in the dark. After the plate was washed with PBST buffer (pH 7.4, containing 0.05% tween-20) for 3 times, 100p/well of TMB (Biopanda, #TMB-S-003) was add and the plate was placed in the dark at room temperature for about 30 minutes; stop solution (BBI life sciences, #E661006-0200) was added at 50p/well to each well to terminate the reaction, and the absorbance (OD450) at 450 nm was measured in a microplate reader (PerkinElemer, #Enspire).

[4] = molecular target: T4, human CD200R1a protein (soluble …); assay: BLI in-tandem competition on His-captured human CD200R1a; row = 1st Ab (400 nM); competitor (2nd Ab) PR007223
Method: (§1) To determine if the anti-CD200R1 antibodies bind to human CD200R1a on different or approximate binding epitopes, epitope competition experiments for the anti-CD200R1 antibodies were performed by the ForteBlio Octet® RED96e platform. […] The in-tandem competition assay format was applied, and it contained two association steps. Firstly, the antigen-loaded biosensors bound to each antibody (i.e., First antibody, 1st Ab) at a saturating concentration of 400 nM for 300 seconds to reach equilibrium and then secondly bound to the competing antibodies (i.e., Second antibody, 2nd Ab) of 400 nM for 300 seconds. The second binding signals are recorded as the 100% signal of each antibody when the first antibodies are replaced by kinetic buffer. All the binding data were analyzed using ForteBlio Data Analysis 11.0 software. The inhibition rate was calculated by the following formula: […]

[5] = molecular target: T4, human CD200R1a protein (soluble …); assay: BLI in-tandem competition on His-captured human CD200R1a; row = 1st Ab (400 nM); competitor (2nd Ab) PR007221
Method: as §1

Binder | EC50 [1] [nM] | MFI (MAX) [1] | IC50 of the inhibition of CD200-induced PathHunter Jurkat CD200R1a luminescence (CHOK1/hCD200 cells as CD200 source); head without unit, x axis Log [Ab] (nM) [2] [nM] | binding result [3] | Inhibition ratio (%) [4] [%] | Inhibition ratio (%) [5] [%]
PR002906 (antibody, V domains shown, also called recombinant IgG1 antibody of huDX182) VH: QVQLQESGPGLVKPSETLSLTCTVSGYTITSGYDWSWIRQPPGKGLEWIGYINYGGSTNYKPSLGSRVTISVDTSKNQFSLKLSSVTAADTAVYYCARYNEYKSYIYDWYFDFWGQGTLVTVSS VL: DIQMTQSPSSLSASVGDRVTITCKASKNIRSYLAWYQQKPGKAPKLLIYSGSTLHSGVPSRFSGSGSGTDFTLTISSLQPEDFATYYCQQHHEYPLTFGQGTKVEIKR | 21.4 | 26800 |  |  |  | 
PR006480 (antibody, human IgG1, kappa, L234A L235A, also called PR6480) heavy: not shown light: DIQMTQSPPSLSASVGDRVTITCRASQSISSYLNWFQQKAGKAPKLLISATSNLQSGVPSRFSGSGSGTDFTLTISSLQPEDLATYYCQQSYSSPYTFGQGTKVEIKRTVAAPSVFIFPPSDEQLKSGTASVVCLLNNFYPREAKVQWKVDNALQSGNSQESVTEQDSKDSTYSLSSTLTLSKADYEKHKVYACEVTHQGLSSPVTKSFNRGEC | 19.5 | 34600 | 4.55 |  |  | 
PR007223 (antibody, human IgG1, kappa, PTM variant of PR006895 (human IgG1)) heavy: not shown light: DIQLTQSPPSLSASVGDRVTITCRASQSISSYLNWFQQKAGKAPKLLISATSNLQSGVPSRFSGSGSGTDFTLTISSLQPEDLATYYCQQTYSSPYTFGQGTKVEIKRTVAAPSVFIFPPSDEQLKSGTASVVCLLNNFYPREAKVQWKVDNALQSGNSQESVTEQDSKDSTYSLSSTLTLSKADYEKHKVYACEVTHQGLSSPVTKSFNRGEC | 8.11 | 54200 |  | no binding (tested: 100 nM) | 91.8 | 101
PR007221 (antibody, human IgG1, kappa, PTM variant of PR006895 (human IgG1)) heavy: not shown light: DIQLTQSPPSLSASVGDRVTITCRASQSISSYLNWFQQKAGKAPKLLISATSNLQSGVPSRFSGSGSGTDFTLTISSLQPEDLATYYCQQTLSSPYTFGQGTKVEIKRTVAAPSVFIFPPSDEQLKSGTASVVCLLNNFYPREAKVQWKVDNALQSGNSQESVTEQDSKDSTYSLSSTLTLSKADYEKHKVYACEVTHQGLSSPVTKSFNRGEC | 7.37 | 53300 |  | no binding (tested: 100 nM) | 89 | 100
PR005509 (antibody, human IgG1, kappa, L234A L235A, V domains shown) VH: QVQLVESGGGVVQPGRSLRLSCAASGFTFSSYGFHWVRQAPGKGLEWLGLIWSDGSNKYYADSVKGRFTISRDNSKNTLYLQMNSLRAEDTAVYYCARDRIVGAGFDYWGQGTLVTVSS VL: not shown |  |  | 2.47 |  |  | 
PR005474 (antibody, human IgG1, kappa, L234A L235A, V domains shown) VH: QVQLVESGGGVVQPGRSLRLSCAASAFTFSSYGMHWVRQAPGKGLEWVALIWNDGSNKFYADSVKGRFTISRDNSKNTLFLQMNSLRAEDTAVYYCARDRILGAGFDYWGQGTLVTVSS VL: not shown |  |  | 7.75 |  |  | 
PR007973 (antibody, human IgG1, kappa, V domains shown, PTM variant of PR006839 (human IgG1)) VH: QVQLVESGGGVVQPGRSLRLSCAASGFTFSSYGFHWVRQAPGKGLEWLGIIWSDASNKYYADSVKGRFTISRDNSKNTLYLQMNSLRAEDTAVYYCARDRIVGEGFDYWGQGTLVTVSS VL: not shown |  |  |  | no binding (tested: 100 nM) | 91.7 | 100
